The values that follow come from patent publication US20090274682.

Data set [1] has as its target PP2A core enzyme variant involving truncation of the carboxy-terminus of the catalytic subunit (two C-terminal amino acids removed by chymotrypsin).
Data set [2] has as its target PP2A core enzyme involving full-length Cα and AΔN, methylated by LCMT1.
The target in data set [3] is PP2A core enzyme (AC heterodimer) involving the full-length A subunit.
Sequence of PP2A core enzyme (AC heterodimer) involving the full-length A subunit (chain, as listed by the source, chain 1 of 2): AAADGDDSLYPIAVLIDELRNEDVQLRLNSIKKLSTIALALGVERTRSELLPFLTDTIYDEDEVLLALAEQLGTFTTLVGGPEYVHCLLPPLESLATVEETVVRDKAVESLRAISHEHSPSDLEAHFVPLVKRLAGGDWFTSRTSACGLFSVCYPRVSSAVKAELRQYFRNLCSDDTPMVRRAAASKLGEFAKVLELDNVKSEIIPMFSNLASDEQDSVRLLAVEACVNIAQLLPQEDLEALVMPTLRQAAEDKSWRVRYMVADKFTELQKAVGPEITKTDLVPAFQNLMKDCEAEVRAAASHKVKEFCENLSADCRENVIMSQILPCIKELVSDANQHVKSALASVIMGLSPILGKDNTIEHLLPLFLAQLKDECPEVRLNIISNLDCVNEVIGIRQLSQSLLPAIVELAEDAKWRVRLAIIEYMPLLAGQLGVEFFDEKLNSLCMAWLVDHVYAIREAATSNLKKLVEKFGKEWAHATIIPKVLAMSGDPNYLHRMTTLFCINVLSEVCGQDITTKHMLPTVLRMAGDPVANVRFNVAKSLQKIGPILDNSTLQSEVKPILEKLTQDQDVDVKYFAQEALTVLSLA
Sequence of PP2A core enzyme (AC heterodimer) involving the full-length A subunit (chain, as listed by the source, chain 2 of 2): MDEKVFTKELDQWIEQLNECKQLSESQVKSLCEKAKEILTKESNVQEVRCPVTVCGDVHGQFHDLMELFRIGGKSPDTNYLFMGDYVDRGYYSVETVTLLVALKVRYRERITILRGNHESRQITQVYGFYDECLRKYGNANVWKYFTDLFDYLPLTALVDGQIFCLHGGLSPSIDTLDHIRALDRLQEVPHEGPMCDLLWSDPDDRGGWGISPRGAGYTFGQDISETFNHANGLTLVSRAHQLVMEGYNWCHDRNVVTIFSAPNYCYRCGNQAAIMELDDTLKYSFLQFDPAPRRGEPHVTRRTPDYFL

Sequence of PP2A core enzyme involving full-length Cα and AΔN, methylated by LCMT1 (chain, as listed by the source mutant, chain 1 of 2): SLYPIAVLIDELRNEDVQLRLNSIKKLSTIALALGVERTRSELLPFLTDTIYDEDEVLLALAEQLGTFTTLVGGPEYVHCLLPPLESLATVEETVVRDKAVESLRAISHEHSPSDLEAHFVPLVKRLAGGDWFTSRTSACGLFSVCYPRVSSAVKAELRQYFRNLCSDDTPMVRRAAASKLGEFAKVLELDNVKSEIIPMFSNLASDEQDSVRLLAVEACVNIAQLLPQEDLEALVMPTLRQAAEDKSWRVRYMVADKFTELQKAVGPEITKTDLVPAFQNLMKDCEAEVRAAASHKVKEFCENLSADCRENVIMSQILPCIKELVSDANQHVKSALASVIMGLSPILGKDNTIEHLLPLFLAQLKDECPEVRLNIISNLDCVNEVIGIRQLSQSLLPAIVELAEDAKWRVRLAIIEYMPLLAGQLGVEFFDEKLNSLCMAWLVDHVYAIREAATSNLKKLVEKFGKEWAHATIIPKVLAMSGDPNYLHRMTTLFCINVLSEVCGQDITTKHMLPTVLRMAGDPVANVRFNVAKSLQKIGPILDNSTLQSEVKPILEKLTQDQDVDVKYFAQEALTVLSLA
Sequence of PP2A core enzyme involving full-length Cα and AΔN, methylated by LCMT1 (chain, as listed by the source mutant, chain 2 of 2): as the sequence (chain, as listed by the source, chain 2 of 2) above
Sequence of PP2A core enzyme variant involving truncation of the carboxy-terminus of the catalytic subunit (two C-terminal amino acids removed by chymotrypsin) (chain, as listed by the source mutant, chain 1 of 2): as the sequence (chain, as listed by the source mutant, chain 1 of 2) above
Sequence of PP2A core enzyme variant involving truncation of the carboxy-terminus of the catalytic subunit (two C-terminal amino acids removed by chymotrypsin) (chain, as listed by the source mutant, chain 2 of 2): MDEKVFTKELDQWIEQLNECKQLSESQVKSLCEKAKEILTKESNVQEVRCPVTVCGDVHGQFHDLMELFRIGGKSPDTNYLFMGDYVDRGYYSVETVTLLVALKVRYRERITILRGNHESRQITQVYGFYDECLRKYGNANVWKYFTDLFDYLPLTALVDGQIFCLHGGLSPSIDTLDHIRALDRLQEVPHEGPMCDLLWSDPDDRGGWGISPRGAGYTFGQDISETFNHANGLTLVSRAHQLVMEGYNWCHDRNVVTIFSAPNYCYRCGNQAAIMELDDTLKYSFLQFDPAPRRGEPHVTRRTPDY

B1: Full-length PME-1 (1-386) (protein)
chain: MSALEKSMHLGRLPSRPPLPGSGGSQSGAKMRMGPGRKRDFSPVPWSQYFESMEDVEVENETGKDTFRVYKSGSEGPVLLLLHGGGHSALSWAVFTAAIISRVQCRIVALDLRSHGETKVKNPEDLSAETMAKDVGNVVEAMYGDLPPPIMLIGHSMGGAIAVHTASSNLVPSLLGLCMIDVVEGTAMDALNSMQNFLRGRPKTFKSLENAIEWSVKSGQIRNLESARVSMVGQVKQCEGITSPEGSKSIVEGIIEEEEEDEEGSESISKRKKEDDMETKKDHPYTWRIELAKTEKYWDGWFRGLSNLFLSCPIPKLLLLAGVDRLDKDLTIGQMQGKFQMQVLPQCGHAVHEDAPDKVAEAVATFLIRHRFAEPIGGFQCVFPGC
For the protein B1, the “methylesterase activity of PME-1 after pre-incubation with the PP2A variant and PMSF” value in data set [1] is “pre-incubation with the PP2A variant and PMSF led to marked reduction of PME-1-mediated methylesterase activity”. Further, in data set [2], the “methylesterase activity of PME-1” value is recorded as “The methylesterase activity of PME-1 on the PP2A core enzyme involving the AΔN variant was nearly identical to that on the PP2A core enzyme involving the full-length A subunit”. Besides, in data set [3], the LCMT1-catalyzed methylation entry was “the stable complex between PP2A and PME-1 blocks LCMT1-catalyzed methylation (data not shown)”; the “phosphatase activity after incubation at 37° C.” value is listed as “A prolonged incubation time was required for substantial loss of the phosphatase activity in vitro”; the “phosphatase activity towards phosphorylase a upon initial incubation” value is recorded as “The PP2A core enzyme, upon initial incubation with various concentrations of PME-1, exhibited full phosphatase activity towards the substrate phosphorylase a”.

B2: PME-1 R369D (protein)
chain: MSALEKSMHLGRLPSRPPLPGSGGSQSGAKMRMGPGRKRDFSPVPWSQYFESMEDVEVENETGKDTFRVYKSGSEGPVLLLLHGGGHSALSWAVFTAAIISRVQCRIVALDLRSHGETKVKNPEDLSAETMAKDVGNVVEAMYGDLPPPIMLIGHSMGGAIAVHTASSNLVPSLLGLCMIDVVEGTAMDALNSMQNFLRGRPKTFKSLENAIEWSVKSGQIRNLESARVSMVGQVKQCEGITSPEGSKSIVEGIIEEEEEDEEGSESISKRKKEDDMETKKDHPYTWRIELAKTEKYWDGWFRGLSNLFLSCPIPKLLLLAGVDRLDKDLTIGQMQGKFQMQVLPQCGHAVHEDAPDKVAEAVATFLIDHRFAEPIGGFQCVFPGC
For the protein B2, the methylesterase activity result in data set [3] is “R369D in PME-1 resulted in marked reduction of its methylesterase activity”.

B3: PME-1 M335D (protein)
chain: MSALEKSMHLGRLPSRPPLPGSGGSQSGAKMRMGPGRKRDFSPVPWSQYFESMEDVEVENETGKDTFRVYKSGSEGPVLLLLHGGGHSALSWAVFTAAIISRVQCRIVALDLRSHGETKVKNPEDLSAETMAKDVGNVVEAMYGDLPPPIMLIGHSMGGAIAVHTASSNLVPSLLGLCMIDVVEGTAMDALNSMQNFLRGRPKTFKSLENAIEWSVKSGQIRNLESARVSMVGQVKQCEGITSPEGSKSIVEGIIEEEEEDEEGSESISKRKKEDDMETKKDHPYTWRIELAKTEKYWDGWFRGLSNLFLSCPIPKLLLLAGVDRLDKDLTIGQDQGKFQMQVLPQCGHAVHEDAPDKVAEAVATFLIRHRFAEPIGGFQCVFPGC
Regarding B3, the “Mn2+ bound (ICP-MS) and phosphatase activity with or without manganese chloride” value in data set [3] was “mutation of Met335 to aspartate in PME-1 led to decreased ability to remove the metal ions, and the PP2A-PME-1-M335D complex became readily activated by manganese”.
